Measured values published in paper PMC10516927, “DNA-bridging by an archaeal histone variant via a unique tetramerisation interface” (Communications Biology, 2023).

Tests used:
MJ1647 [1] = biological target: T1, MJ1647 (Methanocaldococcus jannaschii, UniProt Q59041 1-96); assay: DNA-bridging pull-down; settings: EMSA: 50 nM DNA, 10 mM Tris/HCl pH 8.0, 222 mM NaCl, 0.4 mM TCEP, 0.1 mg/ml BSA, 5% glycerol, 37 C 15 min; agarose EMSA: same with 110 mM NaCl, no glycerol …
T1 sequence: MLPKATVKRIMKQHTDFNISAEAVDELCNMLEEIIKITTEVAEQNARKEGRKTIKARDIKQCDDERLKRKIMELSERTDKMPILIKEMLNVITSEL

[2] = biological target: MJ1647ΔTM, deletion variant of MJ1647 lacking the C-terminal 27 amino acids (Methanocaldococcus jannaschii) (UniProt Q59041); assay: SEC-MALS; 100 µl protein at 2.0 mg/ml on a Superose12 10/300 column in buffer N(250), 0.5 ml/min
[3] = biological target: MJ1647ΔTM, deletion variant of MJ1647 lacking the C-terminal 27 amino acids (Methanocaldococcus jannaschii) (UniProt Q59041); assay: native MS; nano-electrospray, protein exchanged into 0.5 M ammonium acetate, Synapt mass spectrometer
[4] = biological target: the molecule itself; assay: crystal structure; X-ray, 1.9 Å; crystals from 0.1 M NaOAc pH 4.6, 10% PEG3350, 5% tacsimate pH 4.6; four chains in the asymmetric unit as two dimers
[5] = biological target: the molecule itself; assay: cross-linking; BS3 (5 mM), 20 µM monomers, modified N(200) buffer with 10 mM HEPES/NaOH pH 7.5, 25 °C 40 min, SDS-PAGE with SYPRO-Orange; A3 alone, MJ1647 alone and co-expressed A3 and MJ1647; no DNA
[6] = biological target: the molecule itself; assay: SEC; elution profiles of purified wild-type MJ1647 and its charge-reversal and cysteine variants compared
[7] = biological target: T2, histone variant MJ1647 from Methanocaldococcus jannaschii (Methanocaldococcus jannaschii (strain …, UniProt Q59041)); assay: co-expression with SEC and BS3 cross-linking/SDS-PAGE
T2 chain: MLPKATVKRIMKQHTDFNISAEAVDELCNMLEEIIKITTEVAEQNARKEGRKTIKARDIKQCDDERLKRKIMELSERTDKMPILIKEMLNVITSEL

[8] = biological target: the molecule itself; assay: SEC-MALS; 100 µl protein at 2.0 mg/ml on a Superose12 10/300 column in buffer N(250), 0.5 ml/min
MJ1647 [9] = biological target: T1, MJ1647; assay: EMSA; single species; EMSA: 50 nM DNA, 10 mM Tris/HCl pH 8.0, 222 mM NaCl, 0.4 mM TCEP, 0.1 mg/ml BSA, 5% glycerol, 37 C 15 min; agarose EMSA: same with 110 mM NaCl, no glycerol; TPM and bridging buffers not in the material; settings: protein: recombinant; tags: untagged; chain copies: 4; label: Cy3 (Methods); 5'-32P for K80E and E95K; blunt
MJ1647ΔTM = biological target: T3, MJ1647ΔTM (Methanocaldococcus jannaschii, UniProt Q59041 1-69, del70-96); assay: EMSA; pattern identical to A3; EMSA: 50 nM DNA, 10 mM Tris/HCl pH 8.0, 222 mM NaCl, 0.4 mM TCEP, 0.1 mg/ml BSA, 5% glycerol, 37 C 15 min; agarose EMSA: same with 110 mM NaCl, no glycerol; TPM and bridging buffers not in the material; settings: protein: recombinant, tags: untagged, chain copies: 2, label: Cy3 (Methods), blunt
T3 sequence: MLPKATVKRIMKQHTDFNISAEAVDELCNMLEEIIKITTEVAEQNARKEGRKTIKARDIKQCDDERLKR

A3 [10] = biological target: T4, A3 (Methanocaldococcus jannaschii, UniProt Q58655 1-67); assay: EMSA; two species (one or two dimers); EMSA: 50 nM DNA, 10 mM Tris/HCl pH 8.0, 222 mM NaCl, 0.4 mM TCEP, 0.1 mg/ml BSA, 5% glycerol, 37 C 15 min; agarose EMSA: same with 110 mM NaCl, no glycerol; TPM and bridging buffers not in the material; settings: protein: recombinant; tags: untagged; chain copies: 2; label: Cy3 (Methods); 5'-32P for K80E and E95K; blunt
T4 sequence: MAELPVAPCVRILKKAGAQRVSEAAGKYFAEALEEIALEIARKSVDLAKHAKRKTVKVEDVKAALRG

MJ1647 E95K = biological target: T5, MJ1647 E95K (Methanocaldococcus jannaschii, UniProt Q59041 1-96, E95K); assay: EMSA; faster (dimer) complex at low, tetramer complex at higher protein; EMSA: 50 nM DNA, 10 mM Tris/HCl pH 8.0, 222 mM NaCl, 0.4 mM TCEP, 0.1 mg/ml BSA, 5% glycerol, 37 C 15 min; agarose EMSA: same with 110 mM NaCl, no glycerol; TPM and bridging buffers not in the material; settings: protein: recombinant; tags: untagged; chain copies: 2; label: Cy3 (Methods); 5'-32P for K80E and E95K; blunt
T5 sequence: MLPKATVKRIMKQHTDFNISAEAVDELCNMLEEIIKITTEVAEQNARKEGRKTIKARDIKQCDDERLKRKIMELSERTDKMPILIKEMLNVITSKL

MJ1647 K80E = biological target: T6, MJ1647 K80E (Methanocaldococcus jannaschii, UniProt Q59041 1-96, K80E); assay: as above; settings: protein: recombinant; tags: untagged; chain copies: 2; label: Cy3 (Methods); 5'-32P for K80E and E95K; blunt
T6 sequence: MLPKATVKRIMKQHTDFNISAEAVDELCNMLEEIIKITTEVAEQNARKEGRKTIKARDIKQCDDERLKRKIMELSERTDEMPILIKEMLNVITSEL

A3 [11] = biological target: T4, A3; assay: EMSA; single shifted species; EMSA: 50 nM DNA, 10 mM Tris/HCl pH 8.0, 222 mM NaCl, 0.4 mM TCEP, 0.1 mg/ml BSA, 5% glycerol, 37 C 15 min; agarose EMSA: same with 110 mM NaCl, no glycerol; TPM and bridging buffers not in the material; settings: protein: recombinant; tags: untagged; chain copies: 2; label: Cy3 (Methods); blunt

Work on 685 bp TPM/bridging substrate yielded a K half (MJ1647 [1]) of 2500 nM.

“MJ1647ΔTM, deletion variant of MJ1647 lacking the C-terminal 27 amino acids (from UniProt Q59041 1-96) (domain or fragment)” gave a stoichiometry N [2] of 2 and a stoichiometry N [3] of 2.

B1: histone variant MJ1647 from Methanocaldococcus jannaschii (natural protein)
chain: MLPKATVKRIMKQHTDFNISAEAVDELCNMLEEIIKITTEVAEQNARKEGRKTIKARDIKQCDDERLKRKIMELSERTDKMPILIKEMLNVITSEL
notes: histone paralogue MJ1647 of Methanocaldococcus jannaschii, histone fold followed by a C-terminal extension of 27 amino acids (tetramerisation module, TM); gene cloned into pET-21a(+) via NdeI and XhoI for expression of untagged protein; expected tetramer mass 44.8 kDa; Untagged; Tetramer in solution (SEC-MALS, native MS); crystallised as dimers at pH 4.6; also called wild-type MJ1647; WT MJ1647; …
For B1, the “stoichiometry N” value [4] was 2 and the “stoichiometry N” value [5] was 4.

B2: MJ1647 C28S/C62S (cysteine-free background) (natural protein, Methanocaldococcus jannaschii)
chain: MLPKATVKRIMKQHTDFNISAEAVDELSNMLEEIIKITTEVAEQNARKEGRKTIKARDIKQSDDERLKRKIMELSERTDKMPILIKEMLNVITSEL
notes: MJ1647 of Methanocaldococcus jannaschii with its two cysteines replaced by serine (C28S, C62S); also called C28S/C62S variant; source: E. coli, purified (as the wild type)
In the case of B2, the “stoichiometry N” value [6] is reported as 4.

B3: MJ1647 E95K charge-reversal mutant (natural protein, Methanocaldococcus jannaschii)
chain: MLPKATVKRIMKQHTDFNISAEAVDELCNMLEEIIKITTEVAEQNARKEGRKTIKARDIKQCDDERLKRKIMELSERTDKMPILIKEMLNVITSKL
notes: MJ1647 of Methanocaldococcus jannaschii with the substitution E95K; source: E. coli, purified (as the wild type; plasmid by site-directed mutagenesis or NEBuilder HiFi DNA assembly)
B3: binds [6].

B4: MJ1647 C28S/C62S/K80C/E95C (double-cysteine variant) (natural protein, Methanocaldococcus jannaschii)
chain: MLPKATVKRIMKQHTDFNISAEAVDELSNMLEEIIKITTEVAEQNARKEGRKTIKARDIKQSDDERLKRKIMELSERTDCMPILIKEMLNVITSCL
modifications: disulfide bond between C80 and C95 of two chains (reduced only at 25 mM TCEP)
notes: MJ1647 of Methanocaldococcus jannaschii with C28S, C62S, K80C and E95C; also called double-cysteine substitution; source: E. coli, purified (as the wild type)
For B4, the “stoichiometry N” value [6] was 4.

B5: MJ1647 K80E/E95K double charge-reversal mutant (natural protein, Methanocaldococcus jannaschii)
chain: MLPKATVKRIMKQHTDFNISAEAVDELCNMLEEIIKITTEVAEQNARKEGRKTIKARDIKQCDDERLKRKIMELSERTDEMPILIKEMLNVITSKL
notes: MJ1647 of Methanocaldococcus jannaschii with the substitutions K80E and E95K; source: E. coli, purified (as the wild type; plasmid by site-directed mutagenesis or NEBuilder HiFi DNA assembly)
For B5, the “stoichiometry N” value [6] was 4.

B6: MJ1647 C28S/C62S/K80C (natural protein, Methanocaldococcus jannaschii)
chain: MLPKATVKRIMKQHTDFNISAEAVDELSNMLEEIIKITTEVAEQNARKEGRKTIKARDIKQSDDERLKRKIMELSERTDCMPILIKEMLNVITSEL
notes: MJ1647 of Methanocaldococcus jannaschii with C28S, C62S and K80C; also called single-cysteine substitution K80C; source: E. coli, purified (as the wild type)
In the case of B6, the “stoichiometry N” value [6] is reported as 4.

B7: MJ1647 C28S/C62S/E95C (natural protein, Methanocaldococcus jannaschii)
chain: MLPKATVKRIMKQHTDFNISAEAVDELSNMLEEIIKITTEVAEQNARKEGRKTIKARDIKQSDDERLKRKIMELSERTDKMPILIKEMLNVITSCL
notes: MJ1647 of Methanocaldococcus jannaschii with C28S, C62S and E95C; also called single-cysteine substitution E95C; source: E. coli, purified (as the wild type)
With B7 the “stoichiometry N” value [6] was 4.

B8: MJ1647 K80E charge-reversal mutant (natural protein, Methanocaldococcus jannaschii)
chain: MLPKATVKRIMKQHTDFNISAEAVDELCNMLEEIIKITTEVAEQNARKEGRKTIKARDIKQCDDERLKRKIMELSERTDEMPILIKEMLNVITSEL
notes: MJ1647 of Methanocaldococcus jannaschii with the substitution K80E; source: E. coli, purified (as the wild type; plasmid by site-directed mutagenesis or NEBuilder HiFi DNA assembly)
B8: binds [6].

B9: histone A3 (MJ1258) from Methanocaldococcus jannaschii (natural protein, UniProt Q58655 1-67, looked up)
chain: MAELPVAPCVRILKKAGAQRVSEAAGKYFAEALEEIALEIARKSVDLAKHAKRKTVKVEDVKAALRG
notes: canonical histone A3 of Methanocaldococcus jannaschii, gene MJ1258, cloned into pET-21a(+) via NdeI and XhoI for expression of untagged protein; expected dimer mass 14.5 kDa; Untagged; also called canonical histone A3; source: E. coli Rosetta 2(DE3), purified (heparin, SP Sepharose, SEC); also co-expressed with MJ1647 from pETDuet-1 in E. coli and purified in the same way
In the case of B9, the binding result [7] is reported as “no binding” and the “stoichiometry N” value [8] is reported as 2.

B10: 60 bp EMSA template (dsDNA)
DNA 1: CATACTGGTTCCAAAGCATGAAATAGTTCCAAAAGAAGAAGTTGAGGAGTTTTGAAGAGA
DNA 2: TCTCTTCAAAACTCCTCAACTTCTTCTTTTGGAACTATTTCATGCTTTGGAACCAGTATG
B10: binds (MJ1647 [9]); binds (MJ1647ΔTM; 5'-32P for K80E and E95K); binds (A3 [10]). B10: binds (MJ1647 E95K); binds (MJ1647 K80E).

B11: 30 bp EMSA template (dsDNA)
DNA 1: CATACTGGTTCCAAAGCATGAAATAGTTCCAA
DNA 2: TTGGAACTATTTCATGCTTTGGAACCAGTATG
B11: binds (A3 [11]); binds (MJ1647ΔTM).
